Earlier results, collected in patent US10669306B2, “Solid supports for use in solid-phase peptide synthesis, kits, and related methods” (UNIVERSITY OF WASHINGTON, priority 2016, dated 2020).

Target: integrin αvβ3 receptor (Homo sapiens, UniProt P05106+P06756)
Conditions: cyclic form; Prante, O., et al. Bioconjug. Chem. 2007, 18, 254

Sequence of integrin αvβ3 receptor (P06756 31-889 limits assumed): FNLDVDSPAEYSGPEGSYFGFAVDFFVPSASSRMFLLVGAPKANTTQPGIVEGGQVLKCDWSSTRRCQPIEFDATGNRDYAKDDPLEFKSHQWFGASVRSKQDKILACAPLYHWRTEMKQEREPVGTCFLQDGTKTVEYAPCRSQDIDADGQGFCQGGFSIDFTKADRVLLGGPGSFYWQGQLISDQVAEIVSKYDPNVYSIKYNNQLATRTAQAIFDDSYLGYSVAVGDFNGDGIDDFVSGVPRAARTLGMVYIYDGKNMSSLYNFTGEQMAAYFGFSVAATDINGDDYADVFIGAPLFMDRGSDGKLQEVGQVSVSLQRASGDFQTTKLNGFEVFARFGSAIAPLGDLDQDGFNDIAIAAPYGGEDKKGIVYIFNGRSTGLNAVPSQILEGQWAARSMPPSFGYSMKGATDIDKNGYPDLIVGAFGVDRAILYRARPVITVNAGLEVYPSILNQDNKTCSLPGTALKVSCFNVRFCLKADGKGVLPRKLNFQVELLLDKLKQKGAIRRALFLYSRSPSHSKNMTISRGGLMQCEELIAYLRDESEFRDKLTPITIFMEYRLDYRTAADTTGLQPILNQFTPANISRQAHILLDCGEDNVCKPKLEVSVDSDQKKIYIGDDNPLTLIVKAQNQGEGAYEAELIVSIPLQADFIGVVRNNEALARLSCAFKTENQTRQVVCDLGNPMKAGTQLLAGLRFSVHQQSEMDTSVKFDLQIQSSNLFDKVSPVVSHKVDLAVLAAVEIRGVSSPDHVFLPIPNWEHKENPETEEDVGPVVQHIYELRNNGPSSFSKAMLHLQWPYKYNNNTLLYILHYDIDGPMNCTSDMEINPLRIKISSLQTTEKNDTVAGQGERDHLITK
Sequence of integrin αvβ3 receptor (P06756 891-1048 partner limits assumed): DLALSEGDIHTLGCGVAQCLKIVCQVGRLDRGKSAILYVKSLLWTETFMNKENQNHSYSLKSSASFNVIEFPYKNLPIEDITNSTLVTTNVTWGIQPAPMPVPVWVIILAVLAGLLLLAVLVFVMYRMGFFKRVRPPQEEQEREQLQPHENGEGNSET
Sequence of integrin αvβ3 receptor (P05106 27-788): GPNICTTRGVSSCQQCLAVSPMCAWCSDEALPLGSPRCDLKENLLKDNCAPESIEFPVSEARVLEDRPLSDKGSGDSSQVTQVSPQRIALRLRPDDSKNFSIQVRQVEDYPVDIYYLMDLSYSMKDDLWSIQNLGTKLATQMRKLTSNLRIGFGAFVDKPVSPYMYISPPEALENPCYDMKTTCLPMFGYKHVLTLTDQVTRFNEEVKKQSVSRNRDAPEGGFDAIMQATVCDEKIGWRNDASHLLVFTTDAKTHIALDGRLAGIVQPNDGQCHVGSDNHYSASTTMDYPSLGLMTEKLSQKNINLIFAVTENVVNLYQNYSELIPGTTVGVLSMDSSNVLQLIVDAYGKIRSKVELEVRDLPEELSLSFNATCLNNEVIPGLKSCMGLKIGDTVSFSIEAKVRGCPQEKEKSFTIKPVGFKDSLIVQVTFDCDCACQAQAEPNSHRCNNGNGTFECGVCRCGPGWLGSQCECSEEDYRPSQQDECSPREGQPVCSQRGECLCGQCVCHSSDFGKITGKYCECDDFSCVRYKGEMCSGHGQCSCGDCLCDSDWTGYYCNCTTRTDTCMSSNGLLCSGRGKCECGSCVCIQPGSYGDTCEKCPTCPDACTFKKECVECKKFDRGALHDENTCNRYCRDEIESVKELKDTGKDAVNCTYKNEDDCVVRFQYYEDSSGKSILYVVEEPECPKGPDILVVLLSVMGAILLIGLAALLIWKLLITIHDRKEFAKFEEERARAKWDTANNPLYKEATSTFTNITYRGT

## CRGD(D-F): Cyclic CRGD(D)-F, a commercially available integrin binding peptide (ANASPEC)
  binding affinity for integrin αvβ3 receptor: nanomolar affinity
